Data published in publication PMC7092541, “Characterization of a novel family VIII esterase EstM2 from soil metagenome capable of hydrolyzing estrogenic phthalates” (Microbial Cell Factories, 2020).

Key:
Assay in all cases: purified protein
CCOC(=O)c1ccccc1C(=O)O = conditions: 50 mM Tris-HCl pH 8.0, 37 °C, substrate 0.1-10 mM (unit defined at 25 °C)
COC(=O)c1ccccc1C(=O)O = conditions: 50 mM Tris-HCl pH 8.0, 37 °C, substrate 0.1-10 mM (unit defined at 25 °C)
[1] = tested on: O=C(Oc1ccccc1)c1ccccc1C(=O)Oc1ccccc1; conditions: 50 mM Tris-HCl pH 8.0, 37 °C, substrate 0.1-10 mM (unit defined at 25 °C)
[2] = tested on: CCCCOC(=O)c1ccccc1C(=O)OCCCC; conditions: 50 mM Tris-HCl pH 8.0, 37 °C, substrate 0.1-10 mM (unit defined at 25 °C)
[3] = tested on: CCCCOC(=O)c1ccccc1C(=O)OCc1ccccc1; conditions: 50 mM Tris-HCl pH 8.0, 37 °C, substrate 0.1-10 mM (unit defined at 25 °C)
[4] = tested on: CCCC(=O)Oc1ccc([N+](=O)[O-])cc1; conditions: 50 mM Tris-HCl pH 8.0, 1% acetonitrile
[5] = tested on: O=C(O)c1ccccc1C(=O)Oc1ccccc1; conditions: 50 mM Tris-HCl pH 8.0, 37 °C, substrate 0.1-10 mM (unit defined at 25 °C)
[6] = tested on: O=C(O)c1ccccc1C(=O)OCc1ccccc1; conditions: 50 mM Tris-HCl pH 8.0, 37 °C, substrate 0.1-10 mM (unit defined at 25 °C)
[7] = tested on: CCCCCC(=O)Oc1ccc([N+](=O)[O-])cc1; conditions: 50 mM Tris-HCl pH 8.0, 1% acetonitrile
CCCCOC(=O)c1ccccc1C(=O)O = conditions: 50 mM Tris-HCl pH 8.0, 37 °C, substrate 0.1-10 mM (unit defined at 25 °C)
COC(=O)c1ccccc1C(=O)OC = conditions: 50 mM Tris-HCl pH 8.0, 37 °C, substrate 0.1-10 mM (unit defined at 25 °C)
[8] = tested on: CC(=O)Oc1ccc([N+](=O)[O-])cc1; conditions: 50 mM Tris-HCl pH 8.0, 1% acetonitrile

For EstM2 (uncultured bacterium), the Km (CCOC(=O)c1ccccc1C(=O)O) was 1.73 ± 0.13 mM, the Vmax (CCOC(=O)c1ccccc1C(=O)O) was 54.2 µmol/min/mg and the kcat/Km (CCOC(=O)c1ccccc1C(=O)O) was 22500 ± 1600 M⁻¹ s⁻¹. For the same substance, the Km (COC(=O)c1ccccc1C(=O)O) was 1.95 ± 0.15 mM, the Vmax (COC(=O)c1ccccc1C(=O)O) was 41.3 µmol/min/mg and the kcat/Km (COC(=O)c1ccccc1C(=O)O) was 15200 ± 1200 M⁻¹ s⁻¹. The Vmax [1] was 45.1 µmol/min/mg, the kcat/Km [1] was 54800 ± 3600 M⁻¹ s⁻¹ and the Km [2] was 0.62 ± 0.04 mM. It also gave a Vmax [2] of 72.9 µmol/min/mg, a kcat/Km [2] of 84200 ± 5100 M⁻¹ s⁻¹ and a Km [3] of 0.64 ± 0.04 mM. The Vmax [3] was 57.6 µmol/min/mg, the kcat/Km [3] was 64500 ± 3800 M⁻¹ s⁻¹ and the Km [4] was 0.44 ± 0.01 mM. The Vmax [4] was 905 µmol/min/mg, the kcat/Km [4] was 1.46e+06 ± 34200 M⁻¹ s⁻¹ and the Km [5] was 1.06 ± 0.08 mM. It also gave a Vmax [5] of 37.6 µmol/min/mg, a kcat/Km [5] of 25400 ± 1900 M⁻¹ s⁻¹ and a Km [6] of 1.12 ± 0.08 mM. For the same substance, the Vmax [6] was 43.8 µmol/min/mg, the kcat/Km [6] was 28000 ± 2000 M⁻¹ s⁻¹ and the Km [7] was 0.28 ± 0.02 mM. It also gave a Vmax [7] of 71.4 µmol/min/mg, a kcat/Km [7] of 183000 ± 10700 M⁻¹ s⁻¹ and a Km (CCCCOC(=O)c1ccccc1C(=O)O) of 1.26 ± 0.08 mM. The Vmax (CCCCOC(=O)c1ccccc1C(=O)O) was 56.7 µmol/min/mg, the kcat/Km (CCCCOC(=O)c1ccccc1C(=O)O) was 32200 ± 2200 M⁻¹ s⁻¹ and the Km (COC(=O)c1ccccc1C(=O)OC) was 1.02 ± 0.08 mM. For the same substance, the Vmax (COC(=O)c1ccccc1C(=O)OC) was 42.1 µmol/min/mg, the kcat/Km (COC(=O)c1ccccc1C(=O)OC) was 29600 ± 2300 M⁻¹ s⁻¹ and the Km [8] was 0.41 ± 0.01 mM. The Vmax [8] was 748 µmol/min/mg and the kcat/Km [8] was 1.29e+06 ± 32500 M⁻¹ s⁻¹.
